Assay results published in patent publication US20210087281A1 (AGOMAB THERAPEUTICS, published 2021).
Where a chain is given by its changes, count along the chain named.

B1: 71D4 chimeric llama-human IgG1 mAb (antibody, V domains shown)
VH: ELQLVESGGGLVQPGGSLRLSCAASGFTFSGYGMSWVRQAPGKGLEWVSDINSGGGSTSYADSVKGRFTISRDNAKNTLYLQMNSLKPEDTAVYYCAKDMRLYLARYNDYEAWDYWGQGTQVTVSS
VL: SSALTQPSALSVTLGQTAKITCQGGSLGSSYAHWYQQKPGQAPVLVIYDDDSRPSGIPERFSGSSSGGTATLTISGAQAEDEGDYYCQSADSSGNAAVFGGGTHLTVL
notes: llama VH on human IgG1 CH1-CH2-CH3, llama VL on human lambda CL
B2: 71A3 chimeric llama-human IgG1 mAb (antibody, V domains shown)
VH: EVQLVESGGGLVQPGGSLRLSCAASGFSFKDYDITWVRQAPGKGLEWVSTITSRSGSTSYVDSVKGRFTISGDNAKNTLYLQMNSLKPEDTAVYYCAKVYATTWDVGPLGYGMDYWGKGTLVTVSS
VL: B1 VL with S2Y, A3E
notes: as for B1
B3: 71G2 chimeric llama-human IgG1 mAb (antibody, V domains shown)
VH: EVQLQESGGGLVQPGGSLRLSCAASGFTFSIYDMSWVRQAPGKGLEWVSTINSDGSSTSYVDSVKGRFTISRDNAKNTLYLQMNSLKPEDTAVYYCAKVYGSTWDVGPMGYGMDYWGKGTLVTVSS
VL: SSALTQPSALSVSLGQTARITCQGGSLGSSYAHWYQQKPGQAPVLVIYGDDSRPSGIPERFSGSSSGGTATLTISGAQAEDEDDYYCQSTDSSGNTVFGGGTRLTVL
notes: as for B1

target: T1, native human MET on living cells (human, UniProt P08581 25-1390); assay: cell-based or functional assay
T1 sequence (P08581 25-1390): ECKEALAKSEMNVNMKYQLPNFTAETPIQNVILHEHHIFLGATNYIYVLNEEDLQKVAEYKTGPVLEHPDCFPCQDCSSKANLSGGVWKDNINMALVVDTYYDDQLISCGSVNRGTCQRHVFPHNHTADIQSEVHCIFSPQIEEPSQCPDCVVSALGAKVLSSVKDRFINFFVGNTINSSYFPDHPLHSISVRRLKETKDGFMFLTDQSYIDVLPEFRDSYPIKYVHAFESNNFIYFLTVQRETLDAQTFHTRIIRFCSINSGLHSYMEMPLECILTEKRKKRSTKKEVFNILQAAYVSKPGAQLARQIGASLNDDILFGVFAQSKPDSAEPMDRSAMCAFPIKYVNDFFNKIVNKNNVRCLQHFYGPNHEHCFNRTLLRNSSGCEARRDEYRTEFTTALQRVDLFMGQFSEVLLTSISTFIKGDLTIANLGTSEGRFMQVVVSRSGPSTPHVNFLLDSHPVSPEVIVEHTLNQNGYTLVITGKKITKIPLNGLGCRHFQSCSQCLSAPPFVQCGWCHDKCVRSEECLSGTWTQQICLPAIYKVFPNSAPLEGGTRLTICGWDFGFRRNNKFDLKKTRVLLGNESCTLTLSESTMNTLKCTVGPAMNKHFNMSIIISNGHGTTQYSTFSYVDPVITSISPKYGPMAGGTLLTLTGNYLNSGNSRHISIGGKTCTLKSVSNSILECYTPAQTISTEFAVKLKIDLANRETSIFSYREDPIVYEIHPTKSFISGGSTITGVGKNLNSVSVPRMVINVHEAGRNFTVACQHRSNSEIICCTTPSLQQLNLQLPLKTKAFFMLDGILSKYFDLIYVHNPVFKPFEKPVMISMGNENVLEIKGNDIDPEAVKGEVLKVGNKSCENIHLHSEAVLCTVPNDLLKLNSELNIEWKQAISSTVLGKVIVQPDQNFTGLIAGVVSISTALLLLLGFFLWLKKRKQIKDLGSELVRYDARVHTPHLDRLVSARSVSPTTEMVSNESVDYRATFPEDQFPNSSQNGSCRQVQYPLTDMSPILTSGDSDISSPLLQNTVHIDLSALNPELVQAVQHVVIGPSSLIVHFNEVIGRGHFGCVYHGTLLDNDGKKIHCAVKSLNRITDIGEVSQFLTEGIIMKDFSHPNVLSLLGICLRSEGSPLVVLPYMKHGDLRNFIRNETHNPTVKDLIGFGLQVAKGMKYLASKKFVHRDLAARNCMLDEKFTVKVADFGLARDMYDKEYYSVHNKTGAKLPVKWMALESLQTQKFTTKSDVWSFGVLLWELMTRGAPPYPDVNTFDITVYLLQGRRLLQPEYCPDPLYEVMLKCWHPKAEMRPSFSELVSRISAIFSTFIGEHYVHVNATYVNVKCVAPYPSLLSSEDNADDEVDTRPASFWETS

| phospho-MET ELISA EC50, A549 cells [nM] | phospho-MET ELISA EMAX (% HGF activity), A549 cells [%] | Binder |
| --- | --- | --- |
| 0.59 | 84.6 | B1 |
| 0.31 | 86.6 | B2 |
| 0.37 | 101 | B3 |

target: T2, native mouse MET on living cells (mouse, UniProt P16056 25-1379); assay: cell-based or functional assay

| phospho-MET ELISA EC50, MLP29 cells [nM] | phospho-MET ELISA EMAX (% HGF activity), MLP29 cells [%] | Binder |
| --- | --- | --- |
| 0.51 | 95.3 | B1 |
| 0.26 | 96 | B2 |
| 0.25 | 110 | B3 |

target: T2, native mouse MET on living cells; assay: flow cytometry, MLP29 cells
How it was run: (§1)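 Detection used a phycoerythrin-labelled anti-human IgG1 secondary and flow cytometry, measuring binding of chimeric antibodies to native MET on live A549 (human) or MLP29 (mouse) cells. Positive controls were a mouse anti-human MET and a goat anti-mouse MET antibody, each with a PE-labelled secondary.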

| EC50 [nM] | EMAX | Binder |
| --- | --- | --- |
| 0.498 | 94.8 % relative to control | B1 |
| 0.811 | 144 % relative to control | B2 |
| 0.688 | 130 % relative to control | B3 |

target: T3, human MET-Fc (R&D Systems) (human, UniProt P08581 25-932); assay: competition ELISA, hMET-Fc in solid phase, competitor 0.3 nM biotinylated hHGF
T3 construct: extracellular domain; bought chimeric protein; also called hMET; not shown: Fc portion of human IgG1
T3 sequence (P08581 25-932): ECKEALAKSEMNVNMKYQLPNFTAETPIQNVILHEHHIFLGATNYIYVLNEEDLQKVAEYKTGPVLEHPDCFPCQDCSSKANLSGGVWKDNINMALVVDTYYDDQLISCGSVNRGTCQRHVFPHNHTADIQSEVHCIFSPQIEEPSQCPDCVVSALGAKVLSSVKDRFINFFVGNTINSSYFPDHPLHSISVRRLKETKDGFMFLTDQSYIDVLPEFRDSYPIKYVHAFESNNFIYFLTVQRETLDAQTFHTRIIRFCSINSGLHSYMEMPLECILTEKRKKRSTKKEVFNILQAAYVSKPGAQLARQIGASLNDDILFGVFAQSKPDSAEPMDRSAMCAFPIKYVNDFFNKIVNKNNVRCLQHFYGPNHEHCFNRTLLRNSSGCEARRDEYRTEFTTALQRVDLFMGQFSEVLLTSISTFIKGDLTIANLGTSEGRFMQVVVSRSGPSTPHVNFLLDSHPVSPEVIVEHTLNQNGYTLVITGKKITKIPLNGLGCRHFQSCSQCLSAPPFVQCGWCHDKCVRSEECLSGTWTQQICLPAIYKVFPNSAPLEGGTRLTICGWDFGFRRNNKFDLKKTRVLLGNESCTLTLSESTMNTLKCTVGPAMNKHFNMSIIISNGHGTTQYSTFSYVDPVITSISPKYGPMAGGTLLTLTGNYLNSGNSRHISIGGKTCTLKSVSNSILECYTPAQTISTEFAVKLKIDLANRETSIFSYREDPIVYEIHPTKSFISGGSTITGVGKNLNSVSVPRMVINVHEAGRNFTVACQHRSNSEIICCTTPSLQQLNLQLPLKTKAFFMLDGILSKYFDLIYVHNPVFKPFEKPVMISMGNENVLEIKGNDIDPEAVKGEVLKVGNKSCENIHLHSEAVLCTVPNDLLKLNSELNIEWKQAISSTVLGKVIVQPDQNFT
How it was run: (§2)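 An ELISA format measured how well mAbs (0-120 nM) displaced N-terminus-biotinylated HGF from plate-bound receptor. Results are given as the concentration producing 50% competition and as IMAX, the saturating maximum percentage.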

| IC50 [nM] | IMAX [%] | Binder |
| --- | --- | --- |
| 0.34 | 95.6 | B1 |
| 0.51 | 93.4 | B2 |
| 0.23 | 97.8 | B3 |

target: T1, native human MET on living cells; assay: cell-based or functional assay; remark: another data set of the same source

| Binder | protection from staurosporine, viability EC50, MCF10A cells [nM] | protection from staurosporine, viability EMAX, MCF10A cells [%] |
| --- | --- | --- |
| B1 | 30.2 | 51.7 |
| B2 | < 0.5 | 71.7 |
| B3 | 1.06 | 64.8 |

target: T2, native mouse MET on living cells; assay: cell-based or functional assay; remark: another data set of the same source

| Binder | protection from staurosporine, viability EC50, MLP29 cells [nM] | protection from staurosporine, viability EMAX, MLP29 cells [%] |
| --- | --- | --- |
| B1 | 29.8 | 52.1 |
| B2 | < 0.5 | 70.5 |
| B3 | 1.99 | 58.3 |

target: T1, native human MET on living cells; assay: cell-based or functional assay; remark: another data set of the same source

| branches per spheroid, LOC cells, 0.5 nM [branches] | branches per spheroid, LOC cells, 2.5 nM [branches] | branches per spheroid, LOC cells, 12.5 nM [branches] | Binder |
| --- | --- | --- | --- |
| 9 | 15.7 | 18.7 | B1 |
| 24 | 30.3 | 31.3 | B2 |
| 25.3 | 29.3 | 31.7 | B3 |

target: T2, native mouse MET on living cells; assay: cell-based or functional assay; remark: another data set of the same source

| branches per spheroid, MLP29 cells, 0.5 nM [branches] | branches per spheroid, MLP29 cells, 2.5 nM [branches] | branches per spheroid, MLP29 cells, 12.5 nM [branches] | Binder |
| --- | --- | --- | --- |
| 16 | 14.7 | 21.7 | B1 |
| 30.3 | 42 | 42.7 | B2 |
| 34 | 46.3 | 45 | B3 |

target: T4, human MET ECD (human, UniProt P08581 25-932); assay: ELISA, MET ECD in solid phase, mAb 0-50 nM
T4 construct: range 1-932; recombinant ECD made by the applicants; the stated range begins at residue 1, so it includes the signal peptide of the entry; also called hMET; hMET ECD
T4 sequence (P08581 25-932 limits assumed, form in doubt): as the sequence (P08581 25-932) above
Method: Using human MET as a template, we mutagenized each of these residues in different permutations, generating a series of MET mutants that are fully human except for specific residues, which are llama. Next, we tested the affinity of selected SEMA-binding mAbs (71D6, 71C3, 71D4, 71A3, 71G2) and PSI-binding mAbs (76H10 and 71G3) for these MET mutants by ELISA. To this end, the various MET proteins were immobilized in solid phase (100 ng/well in a 96-well plate) and then exposed to increasing concentrations of antibodies (0-50 nM) solution. […] Wild-type human MET was used as positive control.
TABLE 18 The epitopes of MET responsible for agonistic antibody binding represent residues conserved among H. sapiens, M. musculus, R. norvegicus, M. fascicularis but not among the same species and L. glama. The relevance of residues conserved among human, mouse, rat, cynomolgus monkey but not llama MET for binding to agonistic mAbs was tested by ELISA. Wild-type (WT) or mutant (MT) human MET ECD was immobilized in solid phase and exposed to increasing concentrations of mAbs in solution. […] All binding values were normalized to the WT protein and are expressed as % binding (EMAX) compared to WT MET.

| % binding (EMAX) compared to WT MET [% WT MET ECD] | Binder |
| --- | --- |
| 100 | B1 |
| 100 | B2 |
| 100 | B3 |

target: T4, human MET ECD; assay: ELISA, MET ECD in solid phase, mAb 0-20 nM
How it was run: (§3)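 Solid-phase ELISA; analyte = protein A-purified chimeric llama/human IgG1 from transient mammalian transfection, titrated in solution onto immobilized MET ECD.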

| EC50 [nM] | EMAX (OD450) [AU] | Binder |
| --- | --- | --- |
| 0.207 | 1.43 | B1 |
| 0.229 | 2.4 | B2 |
| 0.112 | 3.09 | B3 |

target: T5, mouse MET ECD (mouse, UniProt P16056 25-931); assay: ELISA, MET ECD in solid phase, mAb 0-20 nM
T5 construct: range 1-931; recombinant ECD made by the applicants; the stated range begins at residue 1; also called mMET; mMET ECD
How it was run: as §3

| EC50 [nM] | EMAX (OD450) [AU] | Binder |
| --- | --- | --- |
| 0.274 | 1.17 | B1 |
| 0.176 | 2.73 | B2 |
| 0.101 | 3.17 | B3 |

target: human MET ECD mutant A (mutations 1, 2, 3) (human) (UniProt P08581); assay: ELISA, MET ECD in solid phase, mAb 0-50 nM

| % binding (EMAX) compared to WT MET [% WT MET ECD] | Binder |
| --- | --- |
| 114 | B1 |
| 117 | B2 |
| 92.1 | B3 |

target: human MET ECD mutant D (mutations 1, 2) (human) (UniProt P08581); assay: ELISA, MET ECD in solid phase, mAb 0-50 nM

| % binding (EMAX) compared to WT MET [% WT MET ECD] | Binder |
| --- | --- |
| 120 | B1 |
| 128 | B2 |
| 114 | B3 |

target: human MET ECD mutant E (mutations 2, 3, 4) (human) (UniProt P08581); assay: ELISA, MET ECD in solid phase, mAb 0-50 nM

| % binding (EMAX) compared to WT MET [% WT MET ECD] | Binder |
| --- | --- |
| 57.2 | B1 |
| 65.4 | B2 |
| 41.4 | B3 |

target: human MET ECD mutant H (mutations 2, 4) (human) (UniProt P08581); assay: ELISA, MET ECD in solid phase, mAb 0-50 nM

| % binding (EMAX) compared to WT MET [% WT MET ECD] | Binder |
| --- | --- |
| 58.7 | B1 |
| 76.7 | B2 |
| 40.2 | B3 |

target: T6, mouse MET-Fc (R&D Systems) (mouse, UniProt P16056 25-929, limits assumed); assay: competition ELISA, mMET-Fc in solid phase, competitor 0.3 nM biotinylated mHGF
T6 construct: bought chimeric protein; also called mMET; not shown: Fc part
How it was run: as §2

| IC50 [nM] | IMAX [%] | Binder |
| --- | --- | --- |
| 0.4 | 91.3 | B1 |
| 0.54 | 87.7 | B2 |
| 0.26 | 91.9 | B3 |

target: T1, native human MET on living cells; assay: cell-based or functional assay; remark: another data set of the same source

| scatter score 0-4, HPAF-II, 0.001 nM [score] | scatter score 0-4, HPAF-II, 0.004 nM [score] | scatter score 0-4, HPAF-II, 0.012 nM [score] | scatter score 0-4, HPAF-II, 0.037 nM [score] | scatter score 0-4, HPAF-II, 0.111 nM [score] | scatter score 0-4, HPAF-II, 0.333 nM [score] | scatter score 0-4, HPAF-II, 1.000 nM [score] | scatter score 0-4, HPAF-II, 3.000 nM [score] | scatter score 0-4, HPAF-II, 9.000 nM [score] | Binder |
| --- | --- | --- | --- | --- | --- | --- | --- | --- | --- |
| 0 | 0 | 0 | 0 | 0 | 0 | 1 | 2 | 2 | B1 |
| 0 | 0 | 2 | 3 | 3 | 4 | 4 | 4 | 4 | B2 |
| 0 | 1 | 2 | 3 | 4 | 4 | 4 | 4 | 4 | B3 |

target: T2, native mouse MET on living cells; assay: cell-based or functional assay; remark: another data set of the same source

| scatter score 0-4, MLP29, 0.001 nM [score] | scatter score 0-4, MLP29, 0.004 nM [score] | scatter score 0-4, MLP29, 0.012 nM [score] | scatter score 0-4, MLP29, 0.037 nM [score] | scatter score 0-4, MLP29, 0.111 nM [score] | scatter score 0-4, MLP29, 0.333 nM [score] | scatter score 0-4, MLP29, 1.000 nM [score] | scatter score 0-4, MLP29, 3.000 nM [score] | scatter score 0-4, MLP29, 9.000 nM [score] | Binder |
| --- | --- | --- | --- | --- | --- | --- | --- | --- | --- |
| 0 | 0 | 0 | 0 | 0 | 0 | 1 | 2 | 2 | B1 |
| 0 | 0 | 2 | 3 | 3 | 4 | 4 | 4 | 4 | B2 |
| 0 | 0 | 1 | 2 | 4 | 4 | 4 | 4 | 4 | B3 |

target: T1, native human MET on living cells; assay: flow cytometry, A549 cells
How it was run: as §1

| EC50 [nM] | EMAX | Binder |
| --- | --- | --- |
| 0.371 | 107 % relative to control | B1 |
| 0.514 | 161 % relative to control | B2 |
| 0.604 | 144 % relative to control | B3 |
